Experimental data published in US20170210799A1 (Janssen / Centocor, published 2017).

Key:
[1] = target: T1, human ROR1 (Receptor Tyrosine Kinase-Like Orphan Receptor 1) on cells (human, UniProt Q01973 30-937); assay: MSD-CAT, HEK293 cells expressing human ROR1; apparent KD (bivalent, avidity)
T1 construct: whole, on cells; also called hu ROR1

human FcγRI (CD64) = target: T2, human FcγRI (CD64) (human, UniProt P12314 16-288); assay: competition AlphaScreen
T2 construct: bought, His-tagged, on Ni2+ Acceptor beads; also called FcγR1

human FcγRIIb = target: T3, human FcγRIIb (human, UniProt P31994 46-217); assay: competition AlphaScreen
T3 construct: bought, His-tagged, on Ni2+ Acceptor beads; also called FcγRIIb/c (CD32b/c)
T3 sequence (looked up): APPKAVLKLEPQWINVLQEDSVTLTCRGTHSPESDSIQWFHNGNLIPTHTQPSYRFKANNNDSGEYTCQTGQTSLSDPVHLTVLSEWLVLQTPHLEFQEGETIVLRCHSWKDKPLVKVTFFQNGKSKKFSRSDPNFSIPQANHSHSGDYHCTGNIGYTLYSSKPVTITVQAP

human FcγRIIIa (CD16a) = target: T4, human FcγRIIIa (CD16a) (human, UniProt P08637 17-208); assay: competition AlphaScreen
T4 construct: bought, His-tagged, on Ni2+ Acceptor beads

[2] = target: T5, human ROR1 (Receptor Tyrosine Kinase-Like Orphan Receptor 1) on cells (human, UniProt Q01973 30-937); assay: MSD-CAT, cells expressing ROR1
T5 construct: whole, on cells; endogenous on SKMES-1, MDA-MB231, H358, HCC827 and MCL lines, or on HEK293 cells transfected with human ROR1 (pDR25226); the cell line is named under assay; also called cell-surface ROR1; hu ROR1

[3] = target: T5, human ROR1 (Receptor Tyrosine …); assay: MSD-CAT; 1000 pM antibody equilibrated with serially diluted HEK293 cells overexpressing human ROR1
[4] = target: T5, human ROR1 (Receptor Tyrosine …); assay: MSD-CAT; 200, 40 or 8 pM antibody equilibrated with serially diluted HEK293 cells overexpressing human ROR1
[5] = target: T6, human FcRn (FCGRT/B2M Heterodimer) (human, UniProt P55899 24-297; P61769 21-119); assay: AlphaScreen competition: unlabeled competitor antibody against biotinylated B21M WT IgG1 for His-tagged human FcRn; 1x PBS, 0.05% BSA, 0.01% Tween-20, pH 6.0
T6 construct: bought heterodimer, His-tagged

human FcγRIIa (CD32a) = target: T7, human FcγRIIa (CD32a) (human, UniProt P12318 36-218); assay: AlphaScreen competition: unlabeled competitor antibody against biotinylated B21M WT IgG1 for His-tagged human FcγRIIa; 1x PBS, 0.05% BSA, 0.01% Tween-20, pH 7.2
T7 construct: bought, His-tagged, on Ni2+ Acceptor beads
T7 sequence (looked up): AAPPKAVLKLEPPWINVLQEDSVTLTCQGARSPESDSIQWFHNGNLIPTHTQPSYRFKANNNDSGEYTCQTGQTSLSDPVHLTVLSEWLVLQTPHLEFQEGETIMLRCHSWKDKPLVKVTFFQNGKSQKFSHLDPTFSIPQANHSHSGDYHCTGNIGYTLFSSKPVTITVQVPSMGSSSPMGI

[6] = target: T5, human ROR1 (Receptor Tyrosine …); assay: cell binding, ROR1 expressing H358 cells
[7] = target: T8, ROR1 extracellular domain c-Mer proto-oncogene tyrosine kinase transmembrane domain (ROR1 ECD MERTK tm) (Homo sapiens (Human), UniProt Q01973 30-405); assay: cell binding, ROR1 transiently transfected HEK293F cells
T8 construct: also called RR1W1; ROR1-Transfected CHO

[8] = target: T1, human ROR1 (Receptor Tyrosine …); assay: cell binding, H358 cells
[9] = target: ROR1 ECD MERTK tm (RR1W1) on transfected HEK293F cells (Homo sapiens (Human), UniProt Q01973 30-405); assay: cell binding, ROR1 transfected 293F cells

B1: RR1B67 (antibody, human IgG4 S228P, kappa, F234A L235A, V domains shown)
VH: QVQLVQSGAEVKKPGSSVKVSCKASGGTFSTYAIHWVRQAPGQGLEWMGRIIPIEGRAYYAQKFQGRVTITADESTSTAYMELSSLRSEDTAVYYCARGRYSYRYWFDYWGQGTLVTVSS
VL: EIVLTQSPATLSLSPGERATLSCRASQSVSSYLAWYQQKPGQAPRLLIYDASNRATGIPARFSGSGSGTDFTLTISSLEPEDFAVYYCQQRSNWPLTFGQGTKVEIKR
notes: huIgG4 PAA, kappa; also called RRIB67
Kd [1]: 0.055 nM

B2: RCDB5 (bispecific antibody, human IgG4 S228P, kappa, lambda, F234A L235A)
heavy 1: not shown
light 1: not shown
heavy 2: EVQLVESGGGLVQPGGSLRLSCAASGFTFNTYAMNWVRQAPGKGLEWVARIRSKYNNYATYYAASVKGRFTISRDDSKNSLYLQMNSLKTEDTAVYYCARHGNFGNSYVSWFAYWGQGTLVTVSSASTKGPSVFPLAPCSRSTSESTAALGCLVKDYFPEPVTVSWNSGALTSGVHTFPAVLQSSGLYSLSSVVTVPSSSLGTKTYTCNVDHKPSNTKVDKRVESKYGPPCPPCPAPEAAGGPSVFLFPPKPKDTLMISRTPEVTCVVVDVSQEDPEVQFNWYVDGVEVHNAKTKPREEQFNSTYRVVSVLTVLHQDWLNGKEYKCKVSNKGLPSSIEKTISKAKGQPREPQVYTLPPSQEEMTKNQVSLTCLVKGFYPSDIAVEWESNGQPENNYKTTPPVLDSDGSFLLYSKLTVDKSRWQEGNVFSCSVMHEALHNHYTQKSLSLSLGK
light 2: QTVVTQEPSLTVSPGGTVTLTCRSSTGAVTTSNYANWVQQKPGQAPRGLIGGTNKRAPGTPARFSGSLLGGKAALTLSGVQPEDEAEYYCALWYSNLWVFGGGTKLTVLGQPKAAPSVTLFPPSSEELQANKATLVCLISDFYPGAVTVAWKADSSPVKAGVETTTPSKQSNNKYAASSYLSLTPEQWKSHRSYSCQVTHEGSTVEKTVAPTECS
notes: also called ROR1×CD3 bispecific antibody
binding result (human FcγRI (CD64)): binds
binding result (human FcγRIIb): binds
binding result (human FcγRIIIa (CD16a)): binds
Kd [2]: ~0.3 nM
IC50 (read off the curve) [3]: ~1 nM
IC50 (read off the curve) [4]: ~0.4 nM
binding result [5]: binds
binding result (human FcγRIIa (CD32a)): binds

B3: CD3B219 (antibody, human IgG4 S228P, lambda, F234A L235A, V domains shown)
VH: EVQLVESGGGLVQPGGSLRLSCAASGFTFNTYAMNWVRQAPGKGLEWVARIRSKYNNYATYYAASVKGRFTISRDDSKNSLYLQMNSLKTEDTAVYYCARHGNFGNSYVSWFAYWGQGTLVTVSS
VL: QTVVTQEPSLTVSPGGTVTLTCRSSTGAVTTSNYANWVQQKPGQAPRGLIGGTNKRAPGTPARFSGSLLGGKAALTLSGVQPEDEAEYYCALWYSNLWVFGGGTKLTVLG
notes: IgG4 PAA anti-CD3 parental antibody; also called anti-CD3 antibody CD3B219; anti-CD3 antibodies
binding result [6]: no binding
binding result [7]: no binding

B4: CD3B219 (antibody, human IgG4 S228P, lambda, F234A L235A, V domains shown)
VH: EVQLVESGGGLVQPGGSLRLSCAASGFTFNTYAMNWVRQAPGKGLEWVARIRSKYNNYATYYAASVKGRFTISRDDSKNSLYLQMNSLKTEDTAVYYCARHGNFGNSYVSWFAYWGQGTLVTVSS
VL: QTVVTQEPSLTVSPGGTVTLTCRSSTGAVTTSNYANWVQQKPGQAPRGLIGGTNKRAPGTPARFSGSLLGGKAALTLSGVQPEDEAEYYCALWYSNLWVFGGGTKLTVLG
notes: parental anti-CD3 mAb; also called anti-CD3 antibody; Anti-CD3
binding result [8]: no binding
binding result [9]: no binding
